Assay results: patent US20200384079A1, “Compositions of Fibroblast Growth Factor LIgands and Methods of Treating Patients Undergoing Ischemia-Reperfusion Therapy” (University of Cincinnati, priority 2017, published 2020)
“Also recorded” adds a separate entry of the source. Read-outs that look alike come from different tables or passages of the source.

T1: FGFR3c ectodomain (Homo sapiens, UniProt P22607)
T1 sequence (P22607 23-375 limits assumed): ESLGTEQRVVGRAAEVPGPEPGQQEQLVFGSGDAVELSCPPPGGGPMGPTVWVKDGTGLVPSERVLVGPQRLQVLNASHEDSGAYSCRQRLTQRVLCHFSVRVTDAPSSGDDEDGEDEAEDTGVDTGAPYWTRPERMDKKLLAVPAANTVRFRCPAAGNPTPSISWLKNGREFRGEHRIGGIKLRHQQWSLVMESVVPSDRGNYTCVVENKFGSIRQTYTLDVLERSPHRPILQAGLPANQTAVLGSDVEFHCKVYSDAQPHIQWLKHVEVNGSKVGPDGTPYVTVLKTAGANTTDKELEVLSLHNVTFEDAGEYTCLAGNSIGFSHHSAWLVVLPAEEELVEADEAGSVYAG

B1: FGF1^ΔHBS: FGF1 mutant carrying the K127D/K128Q/K133V triple mutation in its HS-binding region; reduced heparin-binding affinity (protein)
chain: MAEGEITTFTALTEKFNLPPGNYKKPKLLYCSNGGHFLRILPDGTVDGTRDRSDQHIQLQLSAESVGEVYIKSTETGQYLAMDTDGLLYGSQTPNEECLFLERLEENHYNTYISKKHAEKNWFVGLDQNGSCVRGPRTHYGQKAILFLPLPVSSD

Columns and labels:
[1] = ITC of FGF interaction with Sucrose Octasulfate (SOS); format: binding
Description: FIGS. 1A-1D: Structure-guided design of the FGF1^ΔHBS construct. (FIG. 1A) Expanded view of the hydrogen bonding interactions (dashed lines) between the HS-binding site of FGF2 and heparin hexasaccharide as observed in the crystal structure. FGF2 is shown as a ribbon diagram with HS-interacting residues rendered in sticks. The three FGF2 residues namely, K128, R129 and K134 that make important hydrogen bonding with HS are boxed. The corresponding three residues in FGF1 are K127, K128 and K133 which were mutated to aspartic acid, glutamine and valine, respectively, to engineer the FGF1ΔHBS construct; (FIG. 1B) FGF1^ΔHBS elutes as a single symmetric peak at its predicted molecular weight from a Superdex 200 sizing column. Retention times of protein standards are given above the chromatogram. (FIG. 1C and FIG. 1D) Analysis of the interactions of wildtype FGF1 and FGF1^ΔHBS with SOS. Indicated solutions of SOS were injected into solutions of wildtype FGF1 or FGF1ΔHBS in the cell. […]
To test the impact of the mutations on HS-binding ability of FGF1, isothermal titration calorimetry (ITC) was used to compare the interactions of native FGF1 and FGF1^ΔHBS with Sucrose Octasulfate (SOS), a known surrogate for HS. […] Next, the cardioprotective potential of FGF1^ΔHBS mutant when administered immediately upon reperfusion was evaluated in an in vivo rat model of myocardial infarction. […]

FGFR3c ectodomain = target: T1, FGFR3c ectodomain; assay: ITC of FGF binding to FGFR3c ectodomain; conditions: for Kd: read-out: affinity for FGFR3c ectodomain
[2] = test system: in vivo rat model of myocardial infarction
ERK1/2 = ERK1/2 activation (phosphorylation) in left ventricle, immunoblot; format: in vivo, rat; conditions: immediately post-treatment
Procedure: Hearts from rats treated with saline, native FGF1 or FGF1^ΔHBS in the presence or absence of heparin were collected immediately after administration and at 120 minutes post-treatment for evaluation of downstream signaling. One-half of each snap-frozen heart was powdered and homogenized in protein extraction buffer as previously described by our laboratory. For FGFR1, 150 μg of total protein were loaded onto a 8% SDS-PAGE gel, for ERK1/2 activation, 20 μg of whole cell protein homogenate was loaded onto a 15% SDS-PAGE gel, and for PKCα and PKCδ, […] of whole cell protein homogenate was loaded onto a 10% SDS-PAGE gel and then transferred to nitrocellulose membrane. 0.1% Ponceau S in 5% acetic acid was used to examine the transfer efficiency and loading equality as described previously 43. Membranes were blocked with 5% dry milk and then incubated with primary antibody against phospho-FGFR1 (Y-654, 1:500, Cell Signaling), phospho-ERK1/2 (1:1000, Cell Signaling) or phospho-PKCα (1:500, Santa Cruz) or phospho-PKCδ (1:500, Santa Cruz) followed by incubation with HRP-conjugated secondary goat anti-rabbit antibody (1:3000, Santa Cruz Biotechnology). Membranes were stripped and reprobed with antibodies against total FGFR1 (1:500, Cell Signaling), total ERK (1:1000, BD Transduction Labs) or total PKCα (1:500, Santa Cruz) or PKCδ (1:500, Santa Cruz). Bound antibodies were visualized by ECL system. Activation is indicated as a ratio of phosphorylated protein/total protein. β-actin (1:1000, Cell Signaling) was also used as a loading control.
Construction of his-tagged native and heparin-binding modified rhFGFs as well as their expression and purification is performed as previously described using his-tagged expression vectors and nickel-nitrilotriacetic acid resin columns. […] His-tagged FGFs are detected in solid organs by ELISA (FIG. 14) both for FGF and histidine (data not shown), and immunoprecipitation (IP) followed by immunoblot and in plasma by ELISA as described previously. His-tags are widely used because they are small and rarely interfere with function, activity, or structure of target proteins. […] There is no observed difference in total ERK or FGFR1 expression between the treatment groups.

[3] = rat; for exogenous FGF1 level targeted to the heart: 10 μg/kg i.v.; for tissue and plasma FGF distribution (in words): i.v.
[4] = rat, FGF given at reperfusion with heparin
[5] = rat, given at reperfusion, no heparin co-therapy

Molecule	Kd [1]	Kd (FGFR3c ectodomain)	recovery of contractility (+dP/dt at 120 minutes post-reperfusion normalized to baseline) ([2]; rat, FGF1 10 μg/kg i.v. at reperfusion, no heparin)	post-ischemic cardiac function (in words) [2, 4]	post-ischemic cardiac function (in words) [2, 5]	ERK1/2 activation (phosphorylation) in left ventricle (in words) (ERK1/2; FGF with heparin)	ERK1/2 activation (phosphorylation) in left ventricle (in words) (ERK1/2; no FGF+heparin co-treatment)	exogenous FGF1 level targeted to the heart ([3]; no heparin)	tissue and plasma FGF distribution (in words) ([3]; FGF with heparin co-administration)	tissue and plasma FGF distribution (in words) ([3]; no FGF+heparin co-treatment)	binding to SOS (in words) [1]	FGFR (receptor) binding affinity (in words) (FGFR3c ectodomain; FGFR3c ectodomain)	heart rate compared to the saline group (in words) ([2]; rat I/R study)	exogenous FGF1 level targeted to the heart ([3]; with heparin administration)
FGF1: native recombinant human fibroblast growth factor 1	4000 nM	704 nM	69%	reduced the post-ischemic improvement of cardiac function	improved relaxation compared to saline treatment	markedly reduced ERK1/2 activation stimulated by FGF1	significantly increased compared to saline or heparin only treatment	2282 ± 97 µg/mL	significantly decreased in kidney, spleen, heart, liver and plasma	distributed to kidney, spleen, heart, liver, and plasma, while less went to lung and skeletal muscle				
B1		432 nM		improved post-ischemic cardiac function, even in the presence of heparin	significantly improved compared to the native FGF1 cohorts; also recorded: significantly improved post-ischemic cardiac function compared to native FGF1; also recorded: greater improvement in cardiac function compared to FGF1		significantly increased compared to saline or heparin only treatment; also recorded: significantly higher level of phosphorylated ERK1/2	3073 ± 101 µg/mL		mainly went to the heart including atria, left ventricle, and right ventricle; also recorded: greater biodistribution of FGF1^ΔHBS to the left ventricle compared to native FGF1	negligible; also recorded: fails to bind SOS	retains normal receptor binding affinity	no significant differences in heart rate	4336 ± 775 µg/mL
